Paper PMC10968091, “Crystallization of Ethylene Plant Hormone Receptor—Screening for Structure” (Biomolecules, 2024)

B1: ETR1^1-316 (domain or fragment, Arabidopsis thaliana, UniProt P49333 1-316, looked up)
chain: MEVCNCIEPQWPADELLMKYQYISDFFIAIAYFSIPLELIYFVKKSAVFPYRWVLVQFGAFIVLCGATHLINLWTFTTHSRTVALVMTTAKVLTAVVSCATALMLVHIIPDLLSVKTRELFLKNKAAELDREMGLIRTQEETGRHVRMLTHEIRSTLDRHTILKTTLVELGRTLALEECALWMPTRTGLELQLSYTLRHQHPVEYTVPIQLPVINQVFGTSRAVKISPNSPVARLRPVSGKYMLGEVVAVRVPLLHLSNFQINDWPELSTKRYALMVLMLPSDSARQWHVHELELVEVVADQVAVALSHAAILEES
notes: From pETEV16b; also called AtETR1^1-316; ETR1 (aa 1-316); source: E. coli C41(DE3)∆(ompF-acrAB), purified (IMAC); not shown: His10, N-terminal, kept
B2: ETR1^1-157 mT2 (domain or fragment, Arabidopsis thaliana, UniProt P49333 1-157, looked up)
chain: MEVCNCIEPQWPADELLMKYQYISDFFIAIAYFSIPLELIYFVKKSAVFPYRWVLVQFGAFIVLCGATHLINLWTFTTHSRTVALVMTTAKVLTAVVSCATALMLVHIIPDLLSVKTRELFLKNKAAELDREMGLIRTQEETGRHVRMLTHEIRSTL
notes: Ethylene response 1 (ETR1), Arabidopsis thaliana, residues 1-157 (aa 158-738 removed); transmembrane domain; From pGEX4T-1; also called ETR1^1-157 mT2 10x His; source: E. coli C41(DE3)∆(ompF-acrAB), purified (IMAC); not shown: His10, C-terminal, kept
B3: ETR1^1-407 (domain or fragment, Arabidopsis thaliana, UniProt P49333 1-407, looked up)
chain: MEVCNCIEPQWPADELLMKYQYISDFFIAIAYFSIPLELIYFVKKSAVFPYRWVLVQFGAFIVLCGATHLINLWTFTTHSRTVALVMTTAKVLTAVVSCATALMLVHIIPDLLSVKTRELFLKNKAAELDREMGLIRTQEETGRHVRMLTHEIRSTLDRHTILKTTLVELGRTLALEECALWMPTRTGLELQLSYTLRHQHPVEYTVPIQLPVINQVFGTSRAVKISPNSPVARLRPVSGKYMLGEVVAVRVPLLHLSNFQINDWPELSTKRYALMVLMLPSDSARQWHVHELELVEVVADQVAVALSHAAILEESMRARDLLMEQNVALDLARREAETAIRARNDFLAVMNHEMRTPMHAIIALSSLLQETELTPEQRLMVETILKSSNLLATLMNDVLDLSRLED
notes: Ethylene response 1 (ETR1), Arabidopsis thaliana, residues 1-407; From pETEV16b; also called AtETR1^1-407; source: E. coli C41(DE3)∆(ompF-acrAB), purified (IMAC); not shown: His10, N-terminal, kept
B4: ETR2^1-186 mT2 (domain or fragment, Arabidopsis thaliana, UniProt Q0WPQ2 1-186, looked up)
chain: MVKEIASWLLILSMVVFVSPVLAINGGGYPRCNCEDEGNSFWSTENILETQRVSDFLIAVAYFSIPIELLYFVSCSNVPFKWVLFEFIAFIVLCGMTHLLHGWTYSAHPFRLMMAFTVFKMLTALVSCATAITLITLIPLLLKVKVREFMLKKKAHELGREVGLILIKKETGFHVRMLTQEIRKSL
notes: Ethylene response 2 (ETR2), Arabidopsis thaliana, residues 1-186 (aa 187-773 removed); transmembrane domain; From pGEX4T-1; The plasmid name and the methods put mT2 next to the C-terminal 10x His-tag; also called ETR2 (aa 1-186); ETR2^1-186 mT2 10x His; source: E. coli C41(DE3)∆(ompF-acrAB), purified (IMAC); not shown: His10, C-terminal, kept

Target: the molecule itself
Assay: SDS-PAGE and Western blot; IMAC-purified receptor constructs on SDS-PAGE (colloidal Coomassie) and Western blot (anti-GFP-HRP for ETR2^1-186 mT2, anti-His-HRP for the others); SDS-stable dimers seen beside monomers

| Protein | binding result |
| --- | --- |
| B1 | binds |
| B2 | binds |
| B3 | binds |
| B4 | binds |
